Laboratory results reported in article PMC4837377.

Legend:
[1] = molecular target: T1, PA;PB1 (in PA-PB1-PB2(1-116));PB2(1-116) (Influenza A virus A/Victoria/3/1975(H3N2);Influenza A virus A/Victoria/3/1975(H3N2);Influenza A virus A/Victoria/3/1975(H3N2)) (UniProt P03432+H9XIJ5); assay: filter binding
[2] = molecular target: PA;PB1(1-686) (Influenza A virus A/Victoria/3/1975(H3N2);Influenza A virus A/Victoria/3/1975(H3N2)) (UniProt P03432); assay: filter binding
[3] = molecular target: T1, PA;PB1 (in PA-PB1-PB2(1-116));PB2(1-116) (Influenza A virus A/Victoria/3/1975(H3N2);Influenza A virus A/Victoria/3/1975(H3N2);Influenza A virus A/Victoria/3/1975(H3N2)); assay: fluorescence anisotropy
[4] = molecular target: PA;PB1(1-686) (Influenza A virus A/Victoria/3/1975(H3N2);Influenza A virus A/Victoria/3/1975(H3N2)) (UniProt P03432); assay: fluorescence anisotropy; conditions: 5'-monophosphate
[5] = test system: PA;PB1(1-686);RanBP5 (Influenza A virus A/Victoria/3/1975(H3N2);Influenza A virus A/Victoria/3/1975(H3N2);Homo sapiens), P03432+O00410-3; assay: fluorescence anisotropy; conditions: 5'-monophosphate
Chain of PA;PB1(1-686);RanBP5 (Influenza A virus A/Victoria/3/1975(H3N2);Influenza A virus A/Victoria/3/1975(H3N2);Homo sapiens), P03432+O00410-3 (O00410 whole entry, looked up, chain 1 of 2): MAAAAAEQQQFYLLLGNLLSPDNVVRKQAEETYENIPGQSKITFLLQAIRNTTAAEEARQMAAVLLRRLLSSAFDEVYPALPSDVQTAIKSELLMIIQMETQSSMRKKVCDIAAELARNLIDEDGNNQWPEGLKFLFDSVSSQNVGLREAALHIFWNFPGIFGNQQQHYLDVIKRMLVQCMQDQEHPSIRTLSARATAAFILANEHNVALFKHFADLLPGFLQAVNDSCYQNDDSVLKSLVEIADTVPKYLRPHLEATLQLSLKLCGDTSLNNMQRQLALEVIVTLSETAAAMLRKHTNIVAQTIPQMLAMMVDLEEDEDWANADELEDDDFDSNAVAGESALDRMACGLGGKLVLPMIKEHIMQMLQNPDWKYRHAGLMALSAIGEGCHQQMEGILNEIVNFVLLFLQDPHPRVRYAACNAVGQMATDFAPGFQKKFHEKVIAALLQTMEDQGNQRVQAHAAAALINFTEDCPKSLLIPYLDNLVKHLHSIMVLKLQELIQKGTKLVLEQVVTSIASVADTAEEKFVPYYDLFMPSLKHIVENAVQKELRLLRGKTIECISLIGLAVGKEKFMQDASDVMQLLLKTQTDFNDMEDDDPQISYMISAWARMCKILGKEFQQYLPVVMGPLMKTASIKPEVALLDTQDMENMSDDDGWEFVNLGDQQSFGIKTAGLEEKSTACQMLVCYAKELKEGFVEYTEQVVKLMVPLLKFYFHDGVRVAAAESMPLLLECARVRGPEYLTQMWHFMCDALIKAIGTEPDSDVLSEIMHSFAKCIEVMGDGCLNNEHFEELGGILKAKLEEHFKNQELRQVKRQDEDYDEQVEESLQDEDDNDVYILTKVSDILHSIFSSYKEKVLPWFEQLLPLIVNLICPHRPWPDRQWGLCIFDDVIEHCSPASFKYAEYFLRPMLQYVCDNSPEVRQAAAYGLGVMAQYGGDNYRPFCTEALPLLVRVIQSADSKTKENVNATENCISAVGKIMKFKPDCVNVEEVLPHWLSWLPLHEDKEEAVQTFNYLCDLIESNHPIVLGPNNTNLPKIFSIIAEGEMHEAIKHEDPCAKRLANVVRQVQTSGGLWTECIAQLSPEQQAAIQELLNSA
Chain of PA;PB1(1-686);RanBP5 (Influenza A virus A/Victoria/3/1975(H3N2);Influenza A virus A/Victoria/3/1975(H3N2);Homo sapiens), P03432+O00410-3 (P03432 whole entry, looked up, chain 2 of 2): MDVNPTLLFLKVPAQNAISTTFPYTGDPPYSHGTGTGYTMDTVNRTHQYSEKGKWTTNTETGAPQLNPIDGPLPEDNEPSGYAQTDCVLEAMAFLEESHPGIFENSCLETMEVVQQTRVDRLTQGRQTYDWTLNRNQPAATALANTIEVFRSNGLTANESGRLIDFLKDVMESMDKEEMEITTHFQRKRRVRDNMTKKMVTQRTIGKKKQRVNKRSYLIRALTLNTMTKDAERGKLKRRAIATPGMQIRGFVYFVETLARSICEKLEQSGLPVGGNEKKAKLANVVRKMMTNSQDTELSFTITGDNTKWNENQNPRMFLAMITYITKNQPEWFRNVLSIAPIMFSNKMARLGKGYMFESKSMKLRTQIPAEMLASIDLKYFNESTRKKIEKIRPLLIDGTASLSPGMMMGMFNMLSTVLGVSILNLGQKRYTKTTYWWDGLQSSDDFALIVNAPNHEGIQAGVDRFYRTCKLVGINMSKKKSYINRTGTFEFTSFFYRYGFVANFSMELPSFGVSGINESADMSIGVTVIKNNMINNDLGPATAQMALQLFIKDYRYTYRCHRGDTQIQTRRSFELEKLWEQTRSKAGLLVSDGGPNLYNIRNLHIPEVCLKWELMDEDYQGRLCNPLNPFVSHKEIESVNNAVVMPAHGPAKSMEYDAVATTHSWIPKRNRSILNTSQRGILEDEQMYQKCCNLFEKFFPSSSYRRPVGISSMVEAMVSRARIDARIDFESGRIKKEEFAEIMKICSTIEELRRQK

NP = assay: fluorescence anisotropy; conditions: 5'-monophosphate

T1 sequence (P03432 whole entry, looked up, chain 2 of 2, other chains not shown): as the sequence (P03432 whole entry, looked up, chain 2 of 2) above
Chain of PA;PB1(1-686) (Influenza A virus A/Victoria/3/1975(H3N2);Influenza A virus A/Victoria/3/1975(H3N2)) (P03432 whole entry, looked up): as the sequence (P03432 whole entry, looked up, chain 2 of 2) above

Sequence: AGUAGAAACAAGGGUA [5'-vRNAp (32P)]
- Kd [1]: 0.19 nM
- Kd [2]: 0.38 nM

Sequence: AGUAGAAACAAGGGUA [5'-vRNAp]
- Kd ([3]; 5'-monophosphate): 0.83 nM
- Kd [4]: 0.87 nM
- Kd [5]: > 1000 nM

Sequence: AUACCCUGCUUUUGCU [3'-vRNAp (32P)]
- Kd [1]: 17 nM

Sequence: AUACCCUGCUUUUGCU [3'-vRNAp]
- Kd [3]: 36 nM

Sequence: UCUCUCUCUCUCUCUCUC [polyUC]
- Kd (NP): 29 nM
- Kd ([3]; 5'-monophosphate): > 1000 nM
